Experiment: label from the status in PepcDB records
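Further: failed if final PepcDB status was selected cloned or expressed and not failed if soluble or beyond.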

**Q.** With “MAMRDLVNGGAACAVPGSSSSSNPLGALTNALLGSSSKTQERLKEIPNANRSGPRPQFYSEDQQIRSLPGSELDQPLLQPGAQGSEFFRGFRSVDQNGLGAAWDEVQQGGPMPPMGPMFEPVQPTFEGPPQRVLSNFLHSFVESSRGGIPFRPAPVPVLGLSQSDKQCIRDRSSIMARHFFADRGEEFINSQVNALLSSLDIDDGIQARGHVPGRFRELDDYWNESQAVVKPNLHPADNWAAEFNQHGMDHGGPDSWVQSFEQQHGVNGWATEFEQGQSQLMSSQMRSMDMQNIAAMEQTRKLAHTLSQDGNPKFQNSRFLQFVSKMSRGELIIDENQVKQASAPGEWATEYEQQYLGPPSWADQFANEKLSHGPEQWADEFASGRGQQETAEDQWVNEFSKLNVDDWIDEFAEGPVGDSSADAWANAYDEFLNEKNAGKQTSGVYVFSDMNPYVGHPEPMKEGQELFRKGLLSEAALALEAEVMKNPENAEGWRLLGVTHAENDDDQQAIAAMMRAQEADPTNLEVLLALGVSHTNELEQATALKYLYGWLRNHPKYGAIAPPELADSLYHADIARLFNEASQLNPEDADVHIVLGVLYNLSREFDRAITSFQTALQLKPNDYSLWNKLGATQANSVQSADAISAYQQALDLKPNYVRAWANMGISYANQGMYKESIPYYVRALAMNPKADNAWQYLRLSLSCASRQDMIEACESRNLDLLQKEFPL” as the sequence, how does the protein production read?
**A.** failed

**Q.** For “MAMSLSGAVLSGMGSSFHNVGAKQSGVGTVRVGRKSELVVVAQRKKSLIYAVKSDGNILDDLNEATKKASDFVTDKTKEALADGEKTKDYIVEKTIEANETATEEAKKALDYVTEKGKEAGNKAAEFVEGKAEEAKNATKS”, which protein production is on record?
**A.** failed

**Q.** Which protein production does the source give for “MANADLDKQPDSVSSVLKVFGILQALGEEREIGITELSQRVMMSKSTVYRFLQTMKTLGYVAQEGESEKYSLTLKLFELGARALQNVDLIRSADIQMRELSRLTKETIHLGALDEDSIVYIHKIDSMYNLRMYSRIGRRNPLYSTAIGKVLLAWRDRDEVKQILEGVEYKRSTERTITSTEALLPVLDQVREQGYGEDNEEQEEGLRCIAVPVFDRFGVVIAGLSISFPTLRFSEERLQEYVAMLHTAARKISAQMGYHDYPF” here?
**A.** not failed

**Q.** With “MANDIDRAGVAKAYARWAPIYDLVFGKVFDSGRQSTIAVADAIGGRVLDVGVGTGLSLSDYSKTTRLCGVDISEPMLRKAHERVRTLNLSNVDVLAVMDAKNLAFPANYFDAVVAQYVITAVPDPEATLDDFIRVLKPGGELILVNHIGAESGPRKLFELAFSPIARRLGWRPEFPWQRLVNWAARHRGVELAERRPMPPMGHFSLIRYRKLLEHHHHHH” as the sequence, how does the protein production read?
**A.** failed

**Q.** For “MANEATQELFQVLDNTAIILQNELEISYLEAVYETGENLFQKEVLQKEELSSEKQLKLQESYESIELENFSNEEIRKGLQLALLKGMKHGIQVNHQMTPDSIGFIVAYLLEKVIQKKKNISILDPACGTANLLTTVINQLELKGDVDVHASGVDVDDLLISLALVGADLQRQKMTLLHQDGLANLLVDPVDVVISDLPVGYYPDDENAKTFELCREEGHSFAHFLFIEQGMRYTKPGGYLFFLVPDAMFGTSDFAKVDKFIKKNGHIEGIIKLPETLFKSEQARKSILILRKADVNVKPPKEVLLANLSSLTDPSVTAPILAEIENWFKSKQ”, which protein production is on record?
**A.** not failed

**Q.** For “MANFEDFLTLDLRIGTVTHAEEFKEARVPAIKLEIDFGELGMKQSSAQITKRYNPEDLIGQQIVAVVNFPPKRVAGFKSEVLVLGGVPEAGDVVLLQPNMELPNGTKIS”, which protein production is on record?
**A.** not failed

**Q.** With “MANFIEKITYLGTPAIKAGNEHLEMIVVPEWGSNVISLVDKTTNVQLLREPETAESFHDTPTLYGIPILFPPNRISDGTFSFRGRTYHFDINEKDKHNHLHGFLYHEKWNVVTTKQTDEGVIVETEIDLSELPHVQKQFPHHAVVRMTYTIKENTLFKHATVMNKGKEAFPWGIGYHTTFIFPAESSLFSLTADQQWELDERLLPTGKLMDVPYKEALHEGMDLRHKQLDDVFLSSYQKRGGENQAVIYHQHAHISIIYKADEQFKHWVVYNADGKQGYLCPEPYTWVTNAVNLDLPSSLTGLQVLEPGEETTAKSSITIELNHQ” as the sequence, how does the protein production read?
**A.** not failed

**Q.** Which protein production does the source give for “MANIDLHFHSRTSDGALTPTEVIDRAAARAPALLALTDHDCTGGLAEAAAAAARRGIPFLNGVEVSVSWGRHTVHIVGLGIDPAEPALAAGLKSIREGRLERARQMGASLEAAGIAGCFDGAMRWCDNPEMISRTHFARHLVDSGAVKDMRTVFRKYLTPGKPGYVSHQWASLEDAVGWIVGAGGMAVIAHPGRYDMGRTLIERLILDFQAAGGQGIEVASGSHSLDDMHKFALHADRHGLYASSGSDFHAPGEGGRDVGHTEDLPPICRPIWRELEARILRP” here?
**A.** failed

**Q.** Which protein production does the source give for “MANIFIENSLLFALTQIVPLLYIVTTALYGIHFFKETPLAGSLKQPALILTVVTHVADLGLLTSTAGYRLSYSAYNLMSMVALTLAITYMFIEFTTKSDKTGFFVIAFAAGSALFSSILSSQTVDSGLAFSGLGIGVHLFAAIFGFSSVAIAGLYSGMYLVLFRQIRLNRFGLLFQRLPNLETLEMLIMHAVAFGFFFLSVTIVAGVLEQHASKEVINLFEPRLVSLFVIWALYGISLVIKPLFGWDIKHMAVLLIALFVLVTALLFIMSLVTPSFHGMSI” here?
**A.** failed

**Q.** With “MANISLKQGQFVTNSLPNKWKFRNLTKILLRRRFIVLGVSCMVISATSFTAITNKPTYKSQMQILVSPNVSEEVGITNNNIDIPISIEQYSVQKNLMQSSKLIDKVVNLLSFDYPNITKENILGKTENSENSPLKVTQLETNKGAKQVLSPVFEISFQDNDPLKTKKVLLALQKVYQDYNLERRQERFNQGLAFINARLPVIKQQLRQAERKLEQFRKKHNLLDPELQSQVLIKSLTKTQEQLQLTRTQLQDINSRYQNLEERITEASQKALVSMRLAQSSRYKTLTSELQKTEQSLAKEQLRYTDDSPIVQSLKQQRRSQLTLVRQELKRLTAELKTQTTPEPEQLVGVDPNLVEEFVQVQTTALGLIANEKSLRESEQRIRSELSKYPSLIAEYQRLLPEVETQRKTLEQMLQAQQSMGMKIAHGGFDWLVLEEANLGTYVGNDRFWLVFVGMITGPILGVVLALIWGMRHRIIHSAQDLQKVSNLRLLGTVPKLAPRTMEKRLPNLSWLGGRNLTESEEVGNSWLPCHETLDMVYQNTQILKYPFPFKSMMVTSALPGEGRTTLAMGLAASAAHMHRRVLLIDANLRSPKLHKILQLSNDWGLSLLLLDETNTEVQDYIQPIHPSIDILTAGPTPEDAVELLSSQRLKDLIELFEETYDLVLIDAPPILGTVDGRIVASYCHGIMMVGRIGWVTQTELTQAVEILNSLNLVGIIANDMSSYHKG” as the sequence, how does the protein production read?
**A.** failed

**Q.** With “MANKQVFPTKGNLIATKKSNALAHMGYELMDRKRNILIREMMGLLDDVKLLRDEITQTYAEAYRALQLANMSLGVISAMAEAVPIDTGLHVSYRSVMGVEIPKLSYDKQEIKPTYGLERANSKLDYAYTCFQRVKEMSVVLAEVENNVYRLANAIRKSQKRANALKNIVIPEFEHNIKFITDALEEKEREEFSRQKVIKRNKDSQMQMERK” as the sequence, how does the protein production read?
**A.** failed

**Q.** For “MANKTIAQTGSATSPTTNKSGTYVEVPLQDTIPIIFVPGIMGSNIFNTVLGKPVWMIGNGISGQVKTLTKQMGKTPAELQTELDPLNTRVDTSGDIKVDRRLKLTEKTLRERYWGTVHWDSYGGILTYLQMVLNNVDLNEKPIYTTGLGGGYAAVQQMKQQEAVYEWKSLLNQTESSKWFPQQSFVPINQQEIEHLKKFHFPVYAMGYNWLQSSENGAALVAQKLDKIKQEYGARFHKFIIVTHSMGGLLTRRLVQLCSADIAGVV”, which protein production is on record?
**A.** failed

**Q.** With “MANNARIEHTSSEGHEGDATCVAYFDGQLFSGGADGKIRIWSPELQLLATVNAHEAYIYCMAINQHGKVYSSSCDGQVHFMLPPYGDESVQELFRCDDAIQAMYCDGSVLYTGDDKGVVTTWTNDRMLFKYSLVEEVKSLAGEQNLIYTVRDLDVVVSQVAEGKSGKYSNKAVIPGKSPLHLLGPMVDGKRSYLAFPDRSGMGLQLVNNLSQQQYSKIWHLPDCHELIINALCGDETYLYSGGYDKKVKGWTDLEAGKPKALGEVEVGSCVNSICCGANDTVYIASSDGFIRSAKFV” as the sequence, how does the protein production read?
**A.** failed

**Q.** Which protein production does the source give for “MANQTVERQSWSNRLAYIMTVAGATVGFGATWRFPYLVGENGGGAYVFLFCIAMIVIGIPMILVENVIGRRMKVNAIDAFSGQANGKKIASGWKILGYMGLLGAFGILSYYMVLGGWVLNYIGSLISGNLDLSSPITVETTTAYYQNSIQNSPITILCYAALFVLINFFILTKGIVDGIERSVKYLMPILFIFLLVMVVRNVTLPGATDGISFYLMPDFSKITPKLFVFVLGQVFFALSLGFGVLITLSSYLDKNENLIKTATITGIMNTFIAVLAGFMIFPSLFSFGVAPNSGPTLVFQSLPIVFSNMWGGTIFAIIFFSLLIVAALTTSLTIYEVIITALQEKTKISRKTAIGITLSSTFLIGNIPSVLGDNIWKDVTIMGKSIFDVFDYISGNILFILTALGSAIFVGYVLKDEAKAELGANKTLTTIWFNYVRFVIPIIIIVIFFNSL” here?
**A.** failed

**Q.** For “MANSIDLIGYVHQPVQFDSTLDGKFWAGTVISHEPSSDSKSESDSSSNFWIPVLFEGDLAHTANSYLKKNDRVHITGQILGDVIQSGANSDQAHVQLFKSFHGSFSHQVMVRD”, which protein production is on record?
**A.** failed

**Q.** With “MANTSSDWAGAPQNASADGEFVRDTNYIDDRIVADVPAGSEPIAQEDGTFHWPVEAGRYRLVAARACPWAHRTVITRRLLGLENVISLGLTGPTHDVRSWTFDLDPNHLDPVLQIPRLQDAYFNRFPDYPRGITVPALVEESSKKVVTNDYPSITIDFNLEWKQFHREGAPNLYPAELREEMAPVMKRIFTEVNNGVYRTGFAGSQEAHNEAYKRLWVALDWLEDRLSTRRYLMGDHITEADIRLYPTLVRFDAVYHGHFKCGRNKITEMPNLWGYLRDLFQTPGFGDTTDFTEIKQHYYITHAEINPTRIVPVGPDLSGFATPHGREKLGGSPFAEGVTLPGPIPAGEEVKNPEPFQK” as the sequence, how does the protein production read?
**A.** not failed

**Q.** With “MANVVILGGNGYLGRNITKVWLEIDPKLEFYIVSRSGQNKLVDKRIHNIKVDVTNEKDVAKKRPDTFDYIIDCIGVPEKDPEKFKQINDLPAETMLALARKQKDPVMGFISGRLGPKTFIDGKAQILKELQDSSIKVASVSPNVVYGNGRKDSMTKMVPFLKFMDLFSAKMNPDDVVKDLINQMIKLHNS” as the sequence, how does the protein production read?
**A.** failed

**Q.** Which protein production does the source give for “MANYPKELPAQTQSRQPGIESEMNPSPVYEYEDYKGADKLKGKVALITGGDSGIGRAVSVAYAKEGADIAIVYKDEHEDAEETKKRVEQEGVKCLLIAGDVGEEEFCNEAVEKTVKELGGLDILVNNAGEQHPKESIKDITSEQLHRTFKTNFYSQFYLTKKAIDYLKPGSAIINTTSINPYVGNPTLIDYTATKGAINAFTRTMAQALVKDGIRVNAVAPGPIWTPLIPATFPEETVAQFGQDTPMGRPGQPVEHVGCYVLLASD” here?
**A.** not failed

**Q.** With “MAPACTTVHRRRAPLAAVLMLSLLPVLSPHADAAQVPWHSRTFKYVADNKDLKEVLRDLSASQSIATWISPEVTGTLSGKFETSPQKFLDDLAATYGFVWYYDGAVLRIWGANESKSATLSLGTASTKSLRDALARMRLDDPRFPVRYDETAHVAVVSGPPGYVDTVSAIAKQVEQGARQRDATEVQVFQLHYAQAADHTTRIGGQDVQIPGMASLLRSMYGARGAPVAAIPGPGANFGRVQPIGGGSSNTFGNAAQGQGGGASGILGLPSSWFGGASSSDRVPVSPPLPGSGTAATAGSPASVWPELSKGRRDESTPIDAGGGAELASDAPVIEADPRTNTILIRDRPERMQSYGTLIQQLDNRPKLLQIDATIIEIRDGAMQDLGVDWRFHSQHTDIQTGNGSGGQLGFNGALSGAATDGATTPAGGTLTAVLGDAGRYLMTRVSALETTNKAKIVSSPQVATLDNVEAVMDHKQQAFVRVSGYASADLYNLSAGVSLRVLPSVVPGSPNGQMRLDVRIEDGQLGSNTVDGIPVITSSEITTQAFVNEGQSLLIAGYAYDADETDLNAVPGLSKIPLLGNLFKHRQKSGSRMQRLFLLTPHVVSP” as the sequence, how does the protein production read?
**A.** failed

**Q.** With “MAPDQQVPATALGKSSRISLDGRRSERSVILADGSMHSLTLLHPGVYTLSSEVAETIRVLSGMAYYHAEGANDVQELHAGDSMVIPANQSYRLEVMEPLDYLLSS” as the sequence, how does the protein production read?
**A.** not failed

From a protein production outcome set (Wang et al. 2014)
